assay: yeast display, Sf9 membrane polyspecificity reagent, FACS + sequencing; frameworks hold sequencing errors
Outline: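 Nanobodies from a synthetic yeast display library (Saccharomyces cerevisiae BJ5465), induced 36–48 hours with galactose, were stained 1 hour at 4 °C with 10% biotinylated, detergent-solubilized Sf9 membrane reagent, enriched on streptavidin microbeads, then FACS-sorted. Anti-HA (expression) and streptavidin (reagent binding) fluorescence set low and high (top ~1%) gates. Polyreactivity labels come from the gate of origin. Genes were colony-PCR amplified, MiSeq 2 × 250 sequenced and filtered by CDR length.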

| Sequence | polyreactivity (PSR sort gate) |
| --- | --- |
| QVQLVESGGGLFQAGGSLRLSCAASGRTFHGYAMGWYRQAPGKERELVARINWSDGRTYYADSVKGRFTISRDNAKNTVYLQMNSLKPEDTAVYYCAADKTVSYAPAWYYYWGQGTQVTVSS | low polyreactivity |
| QVQLVESGGGLFQAGGSLRLSCAASGRTFKPNTMGWYRQAPGKERELVAAITWRGGSTYYADSVKGRFTISRDNAKNTVYLQMNSLKPEDTAVYYCASARVRTGTGMDYWGQVTQVTVSS | low polyreactivity |
| QVQLVESGGGLFQAGGSLRLSCAASGSIFDVNAMGWYRQAPGKEREFVAAISDSGGSTYYADSVKGRFTMSRDNAKNTVSLPMNSLKPEDTAVYYCNADWSWYNYYDFDYWGQGTQVTVSS | low polyreactivity |
| QVQLVESGGGLFQAGGSLRLSCAASGSIFWGYDMGWYRQPPGKERELGARISYSGGSTSYADSVKGRFTISRDNAKNTVYLQMNSLKPEDTAVYYCAADEGGFWWTYPYDCWGQGTQVSVSS | low polyreactivity |
| QVQLVESGGGLFQAGGSLRLSCAASGSTFPYNAMGGYRQAPGKERELVAAINSGATTYYADSVKGRFTISRDNAKNTVYLQMNSLKPEDTAVYYCAAEGYASSSEYDYWGQGTQVTVSS | low polyreactivity |
| QVQLVESGGGLFQAGGSLRLSCAASGSTSIYNAMGWYRQAPGKERELVAAIDVRGGGTYADSVKGRFTISRDNAKNTVYLQMNSMKPEDTAVYYCNADYARYPNGWFRIVGSGYWGQGTQVTVSS | low polyreactivity |
| QVQLVESGGGLFQAGGSLRLSCAASRLIFPLYAMGWYRKAPWKERELVAANTRGGSTYYADSVKGRLTISSDNANNTVYLQINSLKAEDTAVYDCNDELPVHWSWYDYWGQGTQVTVSS | low polyreactivity |
| QVQLVESGGGLFQAGGSLRLSCAATGITFFRYPMGWYRQAPGKERELVAVITRGGTTYYADSVKGRFTISRDNAKNNAYLQINSLKPEDTAVSYCAAKPYYGYDYWGQGTQVTVSW | high polyreactivity |
| QVQLVESGGGLFQAGGSLRLSCAPSGFIFPKNPMSWYRHAPGKERELVAAISQSGGSTYYADSVKGRFTISRDNAKNTVYLQMKSLKADDTAVYSCAARYYLPNWVGGGEYNYWGQGTQVTVST | high polyreactivity |
| QVQLVESGGGLFQAGGSLRLSCAPSGSIIIRNAMGWYRQAPGKEREWVAVISSSVGRTYYADSVKGRFTISRDTAKNTVYVQMNSLKPEVTAVYYCAARWYSGYGRFDYWGQVTQVTVSS | high polyreactivity |
| QVQLVESGGGLFQAGGSLRLSCASSGSIFLIYAMGWYRQAPGKERELVAAITQRGGSTYYADSVKGRFTISRDNAKISVYLQMESLKPEDTAVYYCNARRYVMRYNRFYYWGQGTQVTVSS | high polyreactivity |
| QVQLVESGGGLFQAGGSLRLSCSASGSIFKRYAMVWYRQAPGKERELVARITNRSGNTYYADSVKGRFTISRDNAKNTVYLQMISLKPEDSAVYYRAATKSLGRYYMYYWGQGTQVTVSS | low polyreactivity |
| QVQLVESGGGLFQAGVSLRISCAASGFIFDRNAMGWYRQAPGKERELVAVINSGGSTYYADSVKGRFTISRDNAKNTVYLQMNCLKPEDTAVYYCAAVRSRYGREYYYWGQGTQVTVSS | high polyreactivity |
| QVQLVESGGGLFQEGGSLRISCAPSGSTFGGYVMGWYRQAPGKDRELVAAIRRVGRTYYADSVKGRFTISRDNAKNTVYLQINSLKAEVTAVYYFAADWAGWEGYRMDYWGQGTQVTVSS | low polyreactivity |
| QVQLVESGGGLFQEGGSLRLSCAASGFTFLYYDMGWYRQAPGKERELVAAINSSGGGTYYADSVKGRFTISRDNAKNTVYLQMNSLKPEDTAVYYCAVSWSDGYDYWGQGTQVTVSS | high polyreactivity |
| QVQLVESGGGLFQSGGSLRLTSAASGSTFAYKAMGWYRQAPGKEREFVAAITIGSTYADSVKGRFTISRDNAKNTVYLQMNSLKPEDTAVYYCAVRRPRRNYNYPYDYWGQGTQVTVSS | low polyreactivity |
| QVQLVESGGGLGQAAGSLRLSCAASGHIFGPYAMGWYSQAPGKERELVAAITSGGTTYYADSVKGRFTISRDNAKNTVYLQMNSLKPEDTAVYYCAAKFELTRYSSPFFWYDSWGQGTKVTVSS | high polyreactivity |
| QVQLVESGGGLGQAGGSLRLICAASGFIFRYNAMGWYRQAPGKERELVAGISRSGGRTYYADSVKGRFTISRDNAKNTVYLQMNSLKPEDTAVYYCNAEWVGGAGGYYYWGQGTQVTVSS | low polyreactivity |
| QVQLVESGGGLGQAGGSLRLSCAASGFTFRYYAMGWNRQAPGKERELVAAISASGGSTYYADSVKGRFTISRDNAKNTVYLQMNSLKPEDTAVYYCARYYAKMDYWGQGTQVTVSS | high polyreactivity |
| QVQLVESGGGLGQAGGSLRLSCAASGFTFVFYAMGWYRQAPGKERELVAGISRTGGSTYYADSVKGRFTISRDNAKNTVYLQMNSLKPEDTAVYYCAAVSRGFGSRGYDYWGQGTQVTVSS | high polyreactivity |
| QVQLVESGGGLGQAGGSLRLSCAASGLIFGLYAMGWYRQAPGKERELVAAISYRTDSTYADSVKGRFTISRDNAKNTVYLQMNSLKPEDTAVYYCAADLRVSVRYYYWGQGTQVTVSS | low polyreactivity |
| QVQLVESGGGLGQAGGSLRLSCAASGRIFGVYGMGWYRQAPGNDRELVAAITLAGRTNYADSVKGRFTISRDNAKNTVYLQMNSLKPQDTAVYYCAAEKRKLFQGVARYRYEDWGQGTQVTVSS | low polyreactivity |
| QVQLVESGGGLGQAGGSLRLSCAASGRIFRYNAMGWYRQAPGKERELVAAITGSGGSTYYADSVKGRFTISRDNAKNTVYLQMNSLKPEDTAVYYCNTYTYYSRMDYWGQGTQVTVSS | high polyreactivity |
| QVQLVESGGGLGQAGGSLRLSCAASGRIFYSNVMGWYRQAHGKEREFVAAISGRTGGTYYADSVKGRFTISRDNAKNTVYLQMNSLKPEDTAVYYCAARVIYYYGSGPYDYWGQGTQVTVSS | low polyreactivity |
| QVQLVESGGGLGQAGGSLRLSCAASGRTFFRYAMGWYRQAPGKERELVAAISSRGGSTYYADSVKGRFTISRDNAKNTVYLQMNSLKPEDTAVYYCNAAAFINFILYDYWGQGTQVTVSS | high polyreactivity |
| QVQLVESGGGLGQAGGSLRLSCAASGRTVYYNGMGWYRPAPGKEREVVAAITSGGTTSYADSVKGRFTISRDNAKNTVYLQMISLKPEETAVYYSNADYWAVNYDYWGQGTQVTVSS | low polyreactivity |
| QVQLVESGGGLGQAGGSLRLSCAASGSIFWGNAMGWYRQAPGKESELVACIRNSGTSTYYADSVKWRFTISRDNAKNTVYLKMNSLKPVDTAVYYCAAADGRQYSRYYWRGHDYWGQGTQVTVSS | low polyreactivity |
| QVQLVESGGGLGQAGGSLRLSCAASGSIFYYYAMGWYRQAPGKERELVASITSSGGTTSYADSVKGRFTISRDNAKNTVNLQMNSLKPEDTEVYYGNAQVYRYRIGYDYWGQGTQVTVSS | low polyreactivity |
| QVQLVESGGGLGQAGGSLRLSCAASGSIIKPYAMGWYRQAPGKERELVAAIRSSGGRTNYADSVKGRFTISRDNAKNSVYFQMNSLKPEDTGVYYCAAGYVSYWYYRYDYWGQGTQVTVSS | high polyreactivity |
| QVQLVESGGGLGQAGGSLRLSCAASGVSNAMGWYRQAPGKERELVAAISRSGGSTYYADSVKGRFTISRDNAKNTVYLQMNRLKPEDTAVYYCNARPYWIDGSGLFPYDYWGQGSQVTVSS | high polyreactivity |

— the nanobody polyreactivity screen of Harvey et al. (2022)
